Columns and labels:
[1] = system: AncSR2 DBD (reconstructed ancestral); experiment: fluorescence polarization; conditions: FP: 20 mM Tris-HCl pH 7.4, 150 mM NaCl, 5% glycerol, 10 nM FAM-DNA, 1 nM-50 uM DBD, temperature not stated
[2] = system: AncCR DBD (reconstructed ancestral); experiment: fluorescence polarization; conditions: FP: 20 mM Tris-HCl pH 7.4, 150 mM NaCl, 5% glycerol, 10 nM FAM-DNA, 1 nM-50 uM DBD, temperature not stated
[3] = system: AncGR1 DBD (reconstructed ancestral); experiment: fluorescence polarization; conditions: FP: 20 mM Tris-HCl pH 7.4, 150 mM NaCl, 5% glycerol, 10 nM FAM-DNA, 1 nM-50 uM DBD, temperature not stated
[4] = target: the molecule itself; experiment: crystal structure; GR DBD with 5mC-GBS or pre-GBS DNA duplex, 2:1 protein:DNA molar ratio; hanging drop vapor diffusion, 50 mM sodium cacodylate pH 6.5, 80 mM calcium chloride, 1% glycerol, 7% or 8.5% PEG 400; dimer of DBD on DNA in the asymmetric unit
GR DBD [5] = target: T1, GR DBD (human, UniProt P04150 418-493); experiment: fluorescence polarization; FP: 20 mM Tris-HCl pH 7.4, 150 mM NaCl, 5% glycerol; 10 nM FAM-DNA, 1 nM-50 uM DBD; temperature not stated; conditions: protein: recombinant, tags: 6xHis (pMCSG7 vector), chain copies: 2, label: 5' FAM on strand 1
T1 sequence (P04150 418-493): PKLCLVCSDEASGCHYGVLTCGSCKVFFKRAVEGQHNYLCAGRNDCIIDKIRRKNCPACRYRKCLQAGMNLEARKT

GR DBD [6] = target: T1, GR DBD; experiment: X-ray crystallography (2.0 A); DBD dimer; FP: 20 mM Tris-HCl pH 7.4, 150 mM NaCl, 5% glycerol; 10 nM FAM-DNA, 1 nM-50 uM DBD; temperature not stated; conditions: protein: recombinant; tags: 6xHis (pMCSG7 vector); chain copies: 2
GR DBD [7] = target: T1, GR DBD; experiment: X-ray crystallography (2.5 A); DBD dimer; FP: 20 mM Tris-HCl pH 7.4, 150 mM NaCl, 5% glycerol; 10 nM FAM-DNA, 1 nM-50 uM DBD; temperature not stated; conditions: protein: recombinant; tags: 6xHis (pMCSG7 vector); chain copies: 2
[8] = 5mC at CpG, methyl at mC10 of AGAACGGAGCGTTCT (C12 of strand) seen in structure, other positions in Figure 3A

CCAGAACGGAGCGTTCTGA / TCAGAACGCTCCGTTCTG [pre-GBS]
Kd [1]: 811 nM | Kd [2]: 575 nM | Kd [3]: 139 nM

CCAGAACGGAGCGTTCTGA (double strand) [5mC-GBS]
Kd [1, 8]: 443 nM | Kd [2, 8]: 318 nM | Kd [3, 8]: 78 nM

B1: human glucocorticoid receptor DNA-binding domain (domain or fragment)
chain: PPKLCLVCSDEASGCHYGVLTCGSCKVFFKRAVEGQHNYLCAGRNDCIIDKIRRKNCPACRYRKCLQAGMNLEAR
notes: Cloned into the pMCSG7 vector; In the crystals two DBD copies sit on one DNA duplex (5mC-GBS or pre-GBS); also called GR DBD; GR; source: E. coli BL21 (DE3) pLysS, purified (His-Trap, gel filtration)
stoichiometry N [4]: 2

B2: GBS (dsDNA)
DNA 1: TGAGAACAGAGTGTTCTTT
DNA 2: AAAGAACACTCTGTTCTCA
Kd (GR DBD [5]; blunt): 73 nM

B3: 5mC-GBS (dsDNA)
DNA 1: CCAGAACGGAGCGTTCTGA
DNA 2: TCAGAACGCTCCGTTCTGG
modifications: 5mC at CpG; methyl at mC10 of AGAACGGAGCGTTCT (C12 of strand) seen in structure, other positions in Figure 3A
Kd (GR DBD [5]; blunt): 131 nM

B4: 5mC-GBS crystal DNA (dsDNA)
DNA 1: CCAGAACGGAGCGTTCTG
DNA 2: TCAGAACGCTCCGTTCTG
modifications: 5mC at CpG (mC10)
binding result (GR DBD [6]): binds

B5: pre-GBS (dsDNA)
DNA 1: CCAGAACGGAGCGTTCTGA
DNA 2: TCAGAACGCTCCGTTCTG
Kd (GR DBD [5]; as printed the second strand lacks its 3' terminal G (5' overhang 1 nt on strand 1), possibly a misprint): 206 nM

B6: pre-GBS crystal DNA (dsDNA)
DNA 1: CCAGAACGGAGCGTTCTG
DNA 2: TCAGAACGCTCCGTTCTG
binding result (GR DBD [7]): binds
